Marks after values point to notes of the source that are not given here.
Experiments:
[1] = Repeat dose pharmacokinetics of EXT608 in male and female cynomolgus monkeys; format: in vivo; settings: cynomolgus monkey; for Cmin: 0-48 h; for AUC(0-t): sc
Method: 21-Day Experiment: EXT608 was formulated in 20 mM sodium acetate pH=5.5 buffer with 0.8% sodium chloride. In a repeat dose toxicokinetic study, groups of 4 cynomolgus monkeys (2 males+2 females weighing approximately 2.5 kg each) were subcutaneously dosed every other day at a volume of 0.05 ml/kg with either 1.4, 7 or 20 μg/kg of EXT608. On the last day of dosing, Day 21, blood samples (˜1.0 ml) were collected at t=0 (pre-dose), 0.5, 1, 3, 6, 12, 24, 48, and 72 h. Each blood sample was collected from the saphenous vein into tubes containing K2EDTA and centrifuged (˜2700 g, ˜10 min, ˜5° C.) within 1 hour of collection. Plasma was recovered and divided evenly into duplicate aliquots and frozen. 90-Day Experiment: EXT608 was formulated in 10 mM sodium acetate pH=5.5 buffer with 0.8% sodium chloride and 0.1% Polysorbate 80. In a repeat dose toxicokinetic study, groups of 6 cynomolgus monkeys (3 males+3 females) were subcutaneously dosed every other day at a volume of 0.05 ml/kg with either 0.7 or 2 μg/kg of EXT608. On the last day of dosing, Day 89, blood samples (˜1.0 ml) were collected at t=0 (pre-dose), 0.5, 1, 3, 6, 12, 24, 48, and 72 h. Plasma was prepared as described above for the 21-Day experiment. […] Group-averaged EXT608 levels as a function of time are shown in FIG. 14 for the last dose administration after either 21 days of every other day dosing (20, 7, and 1.4 μg/kg) or 89 days of every other day dosing (2 and 0.7 μg/kg). Surprising, the PK profiles changed as a function of dose level. […] Pharmacokinetic parameters were determined from the plasma concentration versus time data (Table 7) by a non-compartmental extravascular administration model with uniform weighting using Phoenix® WinNonlin® Version 6.4 (Certara L.P. (Pharsight), Princeton, NJ). Pharmacokinetic analysis was performed on data for individual animals collected from t=0 to 72 h following the last administered dose. […] It is noted that the t1/2 values were calculated from less than three half-lives of data. […] The Cmax/Cmin ratio represents the peak-to-trough ratio of EXT608 concentration that is observed during a dosing period. […] Without being bound by theory, the low peak-to-trough ratios observed at low doses could be the result of a slower rate of absorption of EXT608 from the subcutaneous space into circulation. A low peak-to-trough ratio is desirable in many therapeutic applications including parathyroid hormone replacement therapy. This is because it allows dosing at levels close to the ideal efficacious dose without going too high where toxicity is observed, or too low where the efficacy is reduced.

[2] = Single dose pharmacokinetics of EXT608 in healthy humans; format: in vivo; settings: human
Method: EXT608 vastly improves the serum half-life in humans in a dose-dependent manner. Sterile EXT608 formulations were prepared at a concentration of 0.4 mg/ml in 10 mM sodium acetate buffer pH=5.5, 4.5% mannitol, and 0.25% Polysorbate 80 and filled into sterile vials. Healthy human participants were administered EXT608 by subcutaneous injection in the abdomen at doses of 0, 36, 108, 216, or 324 micrograms (n=3).
Pharmacokinetics: 4 ml Blood samples were collected at −24, −1, 0.5, 1, 2, 4, 8, 12, 18, 24, 36, 48, and 72 hours relative to dosing as well as on Days 5, 7, 14, 21, and 28 after dosing. They were processed to K2EDTA plasma. […] Pharmacokinetic parameters were calculated for each individual using Kinetica software (ThermoFisher Scientific, Waltham, MA), and the parameter means and standard deviations are given in Table 12. For the lower doses (36, 108, and 216 μg), an accurate elimination half-life (t1/2) could not be determined because of limited timepoints with EXT608 concentrations above the lower limit of quantitation.

[3] = in vivo, 1.4 ug/kg, every-other-day SC 1.4 μg/kg, 21 days
[4] = in vivo, 36 ug, single 36 μg SC
[5] = in vivo, 108 ug, single 108 μg SC
[6] = in vivo, 216 ug, single 216 μg SC
[7] = in vivo, 324 ug, single 324 μg SC

## C=C1CC[C@H](OCCCNC(=O)CCOCCOCCOCCOCCOCCOCCOCCOCCOCCOCCOCCOCCOCCOCCOCCOCCOCCOCCOCCOCCOCCOCCOCCOCCOCCOCCOCCOCCOCCOCCOCCOCCOCCOCCOCCOCCNC(=O)CCN2C(=O)CC(SC[C@H](NC(=O)[C@H](Cc3ccccc3)NC(=O)[C@H](CC(N)=O)NC(=O)[C@H](Cc3c[nH]cn3)NC(=O)[C@@H](NC(=O)[C@H](CC(=O)O)NC(=O)[C@H](CCC(N)=O)NC(=O)[C@H](CC(C)C)NC(=O)[C@H](CCCCN)NC(=O)[C@H](CCCCN)NC(=O)[C@H](CCCNC(=N)N)NC(=O)[C@H](CC(C)C)NC(=O)[C@H](Cc3c[nH]c4ccccc34)NC(=O)[C@H](CCC(=O)O)NC(=O)[C@@H](NC(=O)[C@H](CCCNC(=N)N)NC(=O)[C@H](CCC(=O)O)NC(=O)[C@H](CCSC)NC(=O)[C@H](CO)NC(=O)[C@H](CC(N)=O)NC(=O)[C@H](CC(C)C)NC(=O)[C@H](Cc3c[nH]cn3)NC(=O)[C@H](CCCCN)NC(=O)CNC(=O)[C@H](CC(C)C)NC(=O)[C@H](CC(N)=O)NC(=O)[C@H](Cc3c[nH]cn3)NC(=O)[C@H](CCSC)NC(=O)[C@H](CC(C)C)NC(=O)[C@H](CCC(N)=O)NC(=O)[C@@H](NC(=O)[C@H](CCC(=O)O)NC(=O)[C@H](CO)NC(=O)[C@@H](NC(=O)[C@@H](N)CO)C(C)C)[C@@H](C)CC)C(C)C)C(C)C)C(N)=O)C2=O)C/C1=C/C=C1\CCC[C@]2(C)[C@@H]([C@H](C)CCCC(C)(C)O)CC[C@@H]12 (stereo partly shown) [EXT608]
[1]; every-other-day SC 0.7 μg/kg, 89 days
  Cmin: 0.600 ng/mL
[1]; every-other-day SC 1.4 μg/kg, 21 days
  Cmin: 0.485 ng/mL
[1]; every-other-day SC 2 μg/kg, 89 days
  Cmin: 0.635 ng/mL
[1]; every-other-day SC 7 μg/kg, 21 days
  Cmin: 0.991 ng/mL
[1]; every-other-day SC 20 μg/kg, 21 days
  Cmin: 1.97 ng/mL
[1]; in vivo, 0.7 ug/kg, every-other-day SC 0.7 μg/kg, 89 days, read-out: AUC0-48 h
  AUC(0-t): 45.4 ng·h/mL
[1]; in vivo, 0.7 ug/kg, every-other-day SC 0.7 μg/kg, 89 days, read-out: AUClast
  AUC(0-t): 61.6 ng·h/mL
[1]; in vivo, 1.4 ug/kg, every-other-day SC 1.4 μg/kg, 21 days, read-out: AUC0-48 h
  AUC(0-t): 41.5 ng·h/mL
[1]; in vivo, 1.4 ug/kg, every-other-day SC 1.4 μg/kg, 21 days, read-out: AUClast
  AUC(0-t): 48 ng·h/mL
[1]; in vivo, 2 ug/kg, every-other-day SC 2 μg/kg, 89 days, read-out: AUC0-48 h
  AUC(0-t): 63.1 ng·h/mL
[1]; in vivo, 7 ug/kg, every-other-day SC 7 μg/kg, 21 days, read-out: AUC0-48 h
  AUC(0-t): 147 ng·h/mL
[1]; in vivo, 20 ug/kg, every-other-day SC 20 μg/kg, 21 days, read-out: AUC0-48 h
  AUC(0-t): 401 ng·h/mL
[1]; [3]
  Cmax: 1.63 ng/mL
  Tmax: 1.8 h
[1]; in vivo, 20 ug/kg, every-other-day SC 20 μg/kg, 21 days
  Cmax: 38.1 ng/mL
[1]; in vivo, repeated every-other-day SC dosing, across doses, calculated from less than three half-lives of data, read-out: t1/2 of elimination
  half-life: 34.7 to 51 h
[2]; single 36 μg SC
  tlast: 24 h
[2]; single 108 μg SC, 48 h (n = 1) or 72 h (n = 2)
  tlast: 48/72^a
[2]; single 216 μg SC
  tlast: 48/72/120
[2]; single 324 μg SC
  tlast: 168 h
[2]; [4]
  AUC(0-t): 5.9 ± 2.7 ng·h/mL
  Cmax: 0.49 ± 0.27 ng/mL
  Tmax: 3.3 ± 1.2 h
[2]; [5]
  AUC(0-t): 29.2 ± 8.4 ng·h/mL
  Cmax: 1.2 ± 0.3 ng/mL
  Tmax: 5.3 ± 2.3 h
[2]; [6]
  AUC(0-t): 41.7 ± 17.4 ng·h/mL
  Cmax: 1.3 ± 0.5 ng/mL
  Tmax: 4 h
[2]; [7]
  AUC(0-inf): 151 ± 16 ng·h/mL
  AUC(0-t): 118 ± 11 ng·h/mL
  Cmax: 5 ± 2 ng/mL
  MRT: 105 ± 18 h
  Tmax: 2.7 ± 1.2 h
  half-life: 90 ± 13 h
[2]; in vivo, 324 ug, single 324 μg SC, read-out: VZ/F
  Vd/F: 280 ± 42 L
[2]; plasma, 324 ug, single 324 μg SC
  CL/F: 36.7 mL/min

From patent US12233115B2, “Long-acting parathyroid hormone” (Extend Biosciences, Inc., priority 2022, dated 2025)
